Assay results taken from PMC6056499, “A systematic dissection of sequence elements determining β-Klotho and FGF interaction and signaling” (Scientific Reports, 2018).
Where two headings read alike, the source gives them in different places.

Columns and labels:
β-Klotho/FGFR complex = assay: Elk1-luciferase reporter assay in HEK293T reporter cells transiently transfected with full-length WT β-Klotho; format: cell-based, human; details: 6 h treatment, mean ± SD of three independent experiments, read-out: EC50, stimulation of Elk1-luciferase reporter activity (KLB WT)
Procedure: (§1) To measure the signaling activity of β-Klotho mutants, ELK luciferase assay was performed in HEK293T cells that were stably transfected with reporter constructs containing 5 × UAS upstream of luciferase and Gal4 DNA-binding domain fused to ELK1. Briefly, HEK293T reporter cells were maintained in DMEM supplemented with 10% (v/v) FBS (Gibco) and 2 mM GlutaMax (Gibco) in a 37 °C incubator with 5% CO2. Cells were plated on 96-well plates in growth medium and incubated overnight. The next day, cells were transfected with expression vectors encoding full-length β-Klotho WT or mutants using the Lipofectamine 2000 transfection reagent (Invitrogen) according to the manufacturer’s protocol. Cells were serum-starved in DMEM supplemented with 5% (v/v) FBS (Gibco) and 2 mM GlutaMax (Gibco) overnight the day after transfection and treated with FGF21 for 6 hours at 37 °C with 5% CO2, after which the cells were lysed in Bright-Glo luciferase reagent (Promega). Luciferase activity was measured in relative luminescence units on the EnVision Multilabel Plate Reader (PerkinElmer) according to the manufacturer’s instructions. All assays were performed in duplicates. EC50 values were determined from a three-parameter logistic regression model with the least squares fit using GraphPad Prism version 7.

[1] = system: FGFR (expressed endogenously in HEK293T reporter cells); assay: Elk1-luciferase reporter assay in HEK293T reporter cells without β-Klotho (no KLB); format: cell-based, human; details: d.n.c = did not converge
Procedure: as §1, with “The next day, cells were transfected with expression vectors encoding full-length β-Klotho WT or mutants using the Lipofectamine 2000 transfection reagent (Invitrogen) according to the manufacturer’s protocol.” left out

β-Klotho/FGFR1c = assay: Elk1-luciferase reporter assay in CHO reporter cells stably expressing human β-Klotho and FGFR1c; format: cell-based; details: 4 h treatment, three independent experiments in duplicates, read-out: EC50, stimulation of Elk1-luciferase reporter activity
Procedure: To measure the signaling activity of Fc-FGF21 mutants, ELK luciferase assay was performed in CHO cells stably transfected with human FGFR1c, β-Klotho and the two reporter constructs described above. CHO reporter cells were maintained in DMEM supplemented with 10% (v/v) dialyzed FBS (GE Healthcare Life Sciences), 6 µg/mL puromycin (Sigma) and 400 μg/mL hygromycin (Invitrogen) in a 37 °C incubator with 5% CO2. Cells were plated on 96-well plates in growth medium and incubated overnight. The next day, cells were serum-starved in Ham’s F-12K Nutrient Mixture (Corning) supplemented with 1% (w/v) BSA (Sigma) overnight. Following starvation, Fc-FGF21 protein was added to cells in starvation medium. Plates were incubated for 4 hours at 37 °C with 5% CO2, after which the cells were lysed in Steady-Glo luciferase reagent (Promega). Luciferase activity was measured and analyzed as described above.

EC50 (β-Klotho/FGFR complex; Fig 3A) [nM]	EC50 (β-Klotho/FGFR complex; Fig 3D) [nM]	EC50 (β-Klotho/FGFR1c) [nM]	Molecule	EC50, stimulation of Elk1-luciferase reporter activity (no KLB) ([1]; Fig 3A, mean ± SD of three independent experiments)	EC50, stimulation of Elk1-luciferase reporter activity (no KLB) ([1]; Fig 3D)
3.5 ± 1.1	2.87 ± 1.15	0.57 ± 0.09	FGF21: mature human FGF21 protein, endocrine fibroblast growth factor (protein, biotin (EZ-Link Sulfo-NHS-LC-Biotin) in the solid-phase binding assay; biotinylated as the labelled ligand in AlphaScreen, mature human FGF21 protein, endocrine fibroblast growth factor) HPIPDSSPLLQFGGQVRQRYLYTDDAQQTEAHLEIREDGTVGGAADQSPESLLQLKALKPGVIQILGVKTSRFLCQRPDGALYGSLHFDPEACSFRELLLEDGYNVYQSEAHGLPLHLPGNKSPHRDPAPRGPARFLPLPGLPPALPEPPGILAPQPPDVGSSDPLSMVGPSQGRSPSYAS	d.n.c	d.n.c
–	–	1.85 ± 0.44	Fc-FGF21: mature human FGF21 polypeptide fused with the human Fc fragment at the N-terminus (protein, left off: Fc (human), N-terminal, kept, mature human FGF21 polypeptide fused with the human Fc fragment at the N-terminus) HPIPDSSPLLQFGGQVRQRYLYTDDAQQTEAHLEIREDGTVGGAADQSPESLLQLKALKPGVIQILGVKTSRFLCQRPDGALYGSLHFDPEACSFRELLLEDGYNVYQSEAHGLPLHLPGNKSPHRDPAPRGPARFLPLPGLPPALPEPPGILAPQPPDVGSSDPLSMVGPSQGRSPSYAS	–	–
